koff and kon data for one molecule are collected here from JP2000515494A (dated 2000).

As a reminder, the koff is a measure of how fast the partners let go of each other. Low readings indicate slow dissociation, high ones fast dissociation. As usually defined, the kon is the rate constant with which the complex forms. A lower kon goes with slow association.

This test addresses T1, 4A6/IL-5複合体 (hIL-5 captured on immobilised mAb 4A6) (human, UniProt P05113 20-134).
T1 construct: also called 4A6/IL-5 complex
Kind of test: BIAcore: mAb 4A6 immobilised, hIL-5 captured, IL-5Rα injected at 15, 30, 60, 120 nM.

T1 sequence (P05113 20-134): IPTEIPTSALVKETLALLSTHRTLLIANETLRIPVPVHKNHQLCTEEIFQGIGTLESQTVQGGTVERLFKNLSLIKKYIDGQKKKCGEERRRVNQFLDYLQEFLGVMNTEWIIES

B1: 可溶性IL-5レセプターα鎖 (soluble IL-5 receptor alpha chain) (receptor, UniProt Q01344 21-335, looked up)
chain: DLLPDEKISLLPPVNFTIKVTGLAQVLLQWKPNPDQEQRNVNLEYQVKINAPKEDDYETRITESKCVTILHKGFSASVRTILQNDHSLLASSWASAELHAPPGSPGTSIVNLTCTTNTTEDNYSRLRSYQVSLHCTWLVGTDAPEDTQYFLYYRYGSWTEECQEYSKDTLGRNIACWFPRTFILSKGRDWLAVLVNGSSKHSAIRPFDQLFALHAIDQINPPLNVTAEIEGTRLSIQWEKPVSAFPIHCFDYEVKIHNTRNGYLQIEKLMTNAFISIIDDLSKYDVQVRAAVSSMCREAGLWSEWSQPIYVGNDE
notes: also called IL-5Pα [sic]
Consider B1, for which the koff was found to be 0.0023 s⁻¹ and the kon was 630000 M⁻¹ s⁻¹.
